How the values were obtained:
Assay in all cases: co-IP
[1] = biological target: β2m-assembled HA-HLA-C*05:01 (human | human (endogenous in HeLa))
[2] = biological target: β2m-assembled HA-HLA-G*01:01 (human | human (endogenous in HeLa))
[3] = biological target: β2m-assembled HA-HLA-C*07:02 (human | human (endogenous in HeLa))

B1: HCMV glycoprotein US10, untagged, transiently expressed (natural protein)
chain: ATEETREPTYFTCGCVIQNHVLKGAVKLYGQFPSPKTLRASAWLHDGENHERHRQPILVEGTATATEALYILLPTELSSPEGNRPRNYSATLTLASRDCYERFVCPVYDSGTPMGVLMNLTYLWYLGDYGAILKIYFGLFCGACVITRSLLLICGYYPPRE
In the case of B1, the US10 signal intensity relative to the maximum (HLA-G-bound US10) [1] is reported as 0.7 fold of max, the US10 signal intensity relative to the maximum (HLA-G-bound US10) [2] is reported as 1 fold of max and the US10 signal intensity relative to the maximum (HLA-G-bound US10) [3] is reported as 0.2 fold of max.
